We go through three molecules from paper PMC11002309, “Cancer-associated polybromo-1 bromodomain 4 missense variants variably impact bromodomain ligand binding and cell growth suppression” (The Journal of Biological Chemistry, 2024).

The target in the assay is T1, biotinylated histone H3K14ac(1–20) peptide (acetyl-lysine at K14; biotin on the added C-terminal lysine; C-terminal amide (CONH2)).
T1 construct: histone H3, residues 1-20; added C-terminal lysine that carries the biotin; also called H3K14ac peptide; Kac peptide; source: synthetic peptide, bought: Peptide 2.0
Put plainly: AlphaScreen or HTRF; full titration: His6-PBRM1-BD4 protein 0.001–2 μM against 50 nM biotinylated H3K14ac(1–20) peptide; streptavidin donor and nickel-chelate acceptor beads; 1× AlphaLISA Epigenetics buffer, 0.05% Tween 20, 2 μM TCEP; room temperature; n = 3. Conditions: both partners purified.

Changes are numbered by the printed parent chain.

B1: PBRM1-BD4 M586I (domain or fragment, human, UniProt Q86U86-5 496-637, looked up)
chain: GDSMISSATSDTGSAKRKSKKNIRKQRMKILFNVVLEAREPGSGRRLCDLFMVKPSKKDYPDYYKIILEPMDLKIIEHNIRNDKYAGEEGIIEDMKLMFRNARHYNEEGSQVYNDAHILEKLLKEKRKELGPLPDDDDMASP
notes: polybromo-1 (PBRM1), fourth bromodomain (BD4) construct, aa 496-637, cancer-associated missense variant; source: E. coli BL21(DE3), purified (Ni-NTA, gel filtration)
B1 yielded a half-maximal effective concentration (EC50) of 0.49 ± 0.13 µM.

B2: PBRM1-BD4 P556S (domain or fragment, human, UniProt Q86U86-5 496-637, looked up)
chain: B1 chain with P61S, I91M
notes: as for B1
As to B2, a half-maximal response (EC50) required 1 ± 0.09 µM and the “fold reduction of affinity against WT” value was 2 to 15 fold.

B3: PBRM1-BD4 R576L (domain or fragment, human, UniProt Q86U86-5 496-637, looked up)
chain: B1 chain with R81L, I91M
notes: as for B1
As to B3, a half-maximal response (EC50) required 0.21 ± 0.02 µM and the “fold reduction of affinity against WT” value fell in the range of 2 to 15 fold.
